# Experiments:
# MS2 coat protein = experiment: apparent KD of MS2 coat protein; higher = weaker reporter binding; conditions: Eterna round: R107
# Procedure: (§1)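 RNA-MaP round R107: designed RNA switches with theophylline, tryptophan, arginine or FMN aptamers are transcribed on-chip within common flanks. They are titrated with SNAP-549-labelled MS2 coat protein in RNA-MaP buffer (100 mM Tris pH 7.5, 80 mM KCl, 4 mM MgCl2), without ligand or with the indicated ligand. Median apparent KD per design.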
# [1] = tested on: K4 kissing-loop RNA reporter; experiment: apparent KD of K4 kissing-loop reporter; higher = weaker reporter binding; conditions: Eterna round: R107;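 also: bound reporter read as fluorescence of individual clusters on recovered sequencing chips by microscopy, with normalized cluster intensities fitted with a binding model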
# Procedure: as §1, with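 “a labelled K4 kissing-loop RNA reporter” for “SNAP-549-labelled MS2 coat protein”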
# [2] = input ligand: theophylline 20 uM
# [3] = input ligand: theophylline 2 mM
# [4] = input ligand: tryptophan 2.4 mM
Sequence,apparent KD of MS2 coat protein (MS2 coat protein; input ligand: arginine 13.2 mM) [nM],apparent KD of MS2 coat protein (MS2 coat protein; input ligand: none) [nM],apparent KD of MS2 coat protein (MS2 coat protein; [2]) [nM],apparent KD of MS2 coat protein (MS2 coat protein; [3]) [nM],apparent KD of MS2 coat protein (MS2 coat protein; [4]) [nM],apparent KD of K4 kissing-loop reporter ([1]; input ligand: FMN 200 uM) [nM],apparent KD of K4 kissing-loop reporter ([1]; input ligand: arginine 13.2 mM) [nM],apparent KD of K4 kissing-loop reporter ([1]; input ligand: none) [nM],"apparent KD of K4 kissing-loop reporter [1, 2] [nM]","apparent KD of K4 kissing-loop reporter [1, 4] [nM]"
AAAAGUAGGUCCAAUAAAACUACAUGUGAAGGAGCGCCCGAAAGGGCAGGUAGGUCGCACAUGAGGAUCACCCAUGUCCUACAAA [ArgEX 7 #OpenEnded],50.1,86.1,103,86.1,71.8,,,,,
AAAAUCCUACCUGAGGAUCACCCAGGUGAAGGAGCGCCCGAAAGGGCAGGUAGGUCGCACCUGAGGAUCACCCUGGUAAACCUAA [ArgEX 22 #DoubleMS2 #OpenEnded],30.9,44,47.6,56.8,40.6,,,,,
AAAGCCACUUCGGCCGCCACUACAACAUGAGGAUCACCCAUGUACCUCGUGUACGGUCCGAGGAGUAGGACCGGGAAGUGGUGGA [(T1'')-(Trp1)-(Ms2)-(M')-(T2')-(M'')-(Trp2)-(T1')],94,,193,175,,,,,,
AAAUAAAUAACUGAUACCAGUGGACUGACAUGAGGAUCACCCAUGUUGGGUUUUGUUGUCCACCCUUGGCAGCAGGGAUAUAAAA [#24 Exclusion-TheophyllineB],24.4,38.5,54.7,70.9,43.4,,,,,
AAAUAAAUACAUGAGGAUCACCCAUGUGAAGGAGCGCGCGUUAGCGCAGGUAGGUCGCACAUGAAUAACUCCGCGCGAAAGCGCA [MAT - Exclusion Arginine A - Mod of Eli - D11],11.8,17.4,23.7,19.6,16.4,,,,,
AAAUAAAUACAUGAGGAUCACCCAUGUGAAGGAGCGGCCGUUAGGCCAGGUAGGUCGCGCAUGAAUAACUCCGUGCAUAAGCACA [MAT - Exclusion Arginine A - Mod of Eli - D18],10.6,11.1,16.6,12.2,12.3,,,,,
AACAUGAGGAUCACCCAUGUACCUUUCGAUCGAGGACCGGUACGGCCGCCACUCGAAAACAUGAGGAUCACCCAUGUUCAACAGG [Tryp A SS t3],58.7,,128,154,,,,,,
AACAUGAGGAUCACCCAUGUGUCCUCGAAACGAGGACCGGUACGGCCGCCACUCGAGCUAUGUUGACGAAAAGUCAGCAUAGCAA [Mat - Exclusion - Trytophan A - D13],123,276,316,374,1080,,,,,
AACCGAGGCUAUCCUCUAAGAAUAUGUGAUACCAGAAUAAUUUUAUUCCCUUGGCAGCAUGACAUGAGGAUCACCCAUGUGUCUU [SSTheo A #7],70,,136,,136,,,,,
AACGUAUACAGAAGGAGCGUGAUUUAUUAUUCUUUAAGAUAUACAUGAGGAUCACCCAUGUCACAGGUAGGUCGCUGUAUUCGUA [JR_ExcArginiB_Sub025],31,34.3,42.3,36.7,34.6,,,,,
UUUAUAAUGUCGGCCGCCACUGGAUUAAUAUUUGUAUAAUCUAGUUCAAAGUGAUGUUUUGAGUCCAGGACCGGGACAUUUGUUA [JR_ExcTryptoB_Sub003],,,,,,570,490,582,509,407
UUUAUUUUCUGAGGAUAUCGUUUUACUGAAGUGAUGUUUCAGUAUUUUCAUAUUAUAUAUAAUUUUCGAGAAGGCAGUAUUAUUA [JR_Nu_SSFMNB_Sub027],,,,,,83.5,60.4,63.7,72.2,64.3
UUUCCAGUGAUGUUGGAGAAAACCGAGGAAGGAGCGGACUCUUGUCCAGGUAGGUCGCCUCGUCUCCCAUUGGCAGAGCGGACCC [Enlaonbian],,,,,,232,239,249,574,211
UUUUUAUAAGAGGAUACCAGUACAAAUAAAGUACAUUAAUAGUAGAGUGAUGUUCUAAAGUACCCUUGGCAGCUUAGAGUAAGUU [ExTheophylB.C],,,,,,161,281,174,239,115
UUUUUGGAGAAUUAUAGUGAUGUUAUGAAGGAGGAUAUCUAAAGAUGGAGAAGGUUUAAUAGUUAAGGGAUGGAGGGUGGGUGGG [ExFMNA.Q],,,,,,372,180,320,208,229
UUUUUUAAGAUAUUGACCAACCCGAAGCUACGAGGACCGGUACGGCCGCCACUCGCCAGUGAUGUUGGCGACUGGUGAAACCAUG [KL-XTryp-A24],,,,,,126,98.9,106,105,185
UUUUUUAGUUGAGUUAUACAUAGCGGACUAUAGGAUAUCUAGAAAUAGAGAAGGAUAAGAGUGAUGUUCUUAUUCAACUAUAGUG,,,,,,101,87.4,90.9,109,91.6

# From the supplement of paper PMC9170038
